How the values were obtained:
[1] = biological target: sulfur oxygenase reductase from Sulfurisphaera tokodaii (Sulfurisphaera tokodaii strain 7); experiment: cryo-EM structure; single particle analysis, 10 mg/mL in 20 mM Tris-HCl pH 8.0, 150 mM NaCl; sample partially purified (heat treatment, gel filtration); 200 kV Talos Arctica; octahedral symmetry imposed, 2.24 Å (C1: 2.73 Å)
[2] = biological target: sulfur oxygenase reductase from Sulfurisphaera tokodaii (Sulfurisphaera tokodaii strain 7); experiment: crystal structure; sitting drop at 20 °C, 1.2 M ammonium sulfate, 100 mM MES-NaOH pH 6.1, 4% dioxane; space group I23, 8 monomers per asymmetric unit; 1.73 Å
[3] = biological target: sulfur oxygenase reductase from Sulfurisphaera tokodaii (Sulfurisphaera tokodaii strain 7); experiment: SEC; gel filtration on HiLoad 16/600 Superdex 200 pg; standards thyroglobulin (669 k), pyruvate kinase (237 k), ovalbumin (44 k), RNaseA (14 k); peak at 539 kDa

Q: Which stoichiometry N [1] does the source give for “sulfur oxygenase reductase from Sulfurisphaera tokodaii (enzyme)” here?
A: 24

Q: And the stoichiometry N [2]?
A: 24

Q: And the stoichiometry N [3]?
A: 15 to 16

From PMC7398979
